Each block holds one molecule with its values, some of them ahead of it.
Key:
[1] = target: His-FcγRI (UniProt P12314); experiment: SPR (BIAcore T100), Fc variant immobilised, His-FcγR as analyte
[2] = target: His-FcγRIIA (131H) (UniProt P12318); experiment: as above
[3] = target: His-FcγRIIA (131R) (UniProt P12318); experiment: as above
[4] = target: His-FcγRIIB (UniProt P31994); experiment: as above
[5] = target: His-FcγRIII (158F) (UniProt P08637); experiment: as above
[6] = target: His-FcγRIII (158V) (UniProt P08637); experiment: as above
[7] = target: T1, human C5a receptor (human, UniProt P21730 1-350); experiment: SPA, unlabelled hC5a displacing 125I-hC5a from RBL-hC5aR membranes
T1 construct: In the SPA: receptor-carrying membrane fragments of RBL-hC5aR cells; also called hC5aR; C5aRI
T1 sequence: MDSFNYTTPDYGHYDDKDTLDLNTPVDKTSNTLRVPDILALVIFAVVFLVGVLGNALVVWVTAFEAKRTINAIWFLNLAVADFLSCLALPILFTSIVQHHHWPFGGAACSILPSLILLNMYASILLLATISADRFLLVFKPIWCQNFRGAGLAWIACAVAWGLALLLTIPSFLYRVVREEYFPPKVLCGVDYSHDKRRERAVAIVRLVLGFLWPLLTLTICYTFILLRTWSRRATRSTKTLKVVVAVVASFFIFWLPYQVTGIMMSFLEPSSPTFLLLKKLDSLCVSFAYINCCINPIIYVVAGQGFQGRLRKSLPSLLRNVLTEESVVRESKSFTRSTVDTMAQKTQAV
Procedure: (§1) A detailed description of the SPA is provided in U.S. Pat. No. 4,568,649 and protocols provided by the manufacturer (Amersham Biosciences). Briefly, receptor-carrying membrane fragments purified from RBL-hC5aR cells bind to scintillating micro particles coated with wheat germ agglutinin (WGA). […] Specific for the SPA-principle, only radio isotope and particles in immediate proximity of each other will emit light. […] The % displacement was calculated as follows: […]

[8] = target: T1, human C5a receptor; experiment: cell-based or functional assay
[9] = target: T1, human C5a receptor; experiment: cell-based or functional assay; remark: listed apart in the source
[10] = target: T1, human C5a receptor; experiment: cell-based or functional assay; remark: listed apart in the source
[11] = target: T1, human C5a receptor; experiment: SPA, displacement of 125I-hC5a from RBL-hC5aR membranes
Procedure: as §1

Sequence of His-FcγRIIA (131R) (P12318 36-218 H167R limits assumed): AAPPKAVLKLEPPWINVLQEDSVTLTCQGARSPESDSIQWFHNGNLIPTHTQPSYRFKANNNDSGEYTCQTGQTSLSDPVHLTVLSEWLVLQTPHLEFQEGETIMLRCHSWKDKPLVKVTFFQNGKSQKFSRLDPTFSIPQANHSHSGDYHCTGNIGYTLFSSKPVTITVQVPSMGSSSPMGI
Sequence of His-FcγRIIA (131H) (P12318 36-218 limits assumed): as the sequence (P12318 36-218 H167R limits assumed) above, with R132H counted along it
Sequence of His-FcγRI (P12314 16-288 limits assumed): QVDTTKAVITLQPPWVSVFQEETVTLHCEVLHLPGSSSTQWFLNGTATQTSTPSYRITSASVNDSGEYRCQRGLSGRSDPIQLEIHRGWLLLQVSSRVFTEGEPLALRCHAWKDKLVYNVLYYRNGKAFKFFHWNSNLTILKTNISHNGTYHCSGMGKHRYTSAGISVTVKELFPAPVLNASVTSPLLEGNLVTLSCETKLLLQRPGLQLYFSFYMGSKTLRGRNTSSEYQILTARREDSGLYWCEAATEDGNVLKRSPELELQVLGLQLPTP
Sequence of His-FcγRIIB (P31994 46-217 limits assumed): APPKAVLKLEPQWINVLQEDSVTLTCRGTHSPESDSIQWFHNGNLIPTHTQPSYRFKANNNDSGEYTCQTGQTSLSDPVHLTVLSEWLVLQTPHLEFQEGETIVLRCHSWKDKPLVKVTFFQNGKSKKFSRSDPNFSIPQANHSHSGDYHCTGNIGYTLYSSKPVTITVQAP
Sequence of His-FcγRIII (158V) (P08637 17-208 F176V limits assumed): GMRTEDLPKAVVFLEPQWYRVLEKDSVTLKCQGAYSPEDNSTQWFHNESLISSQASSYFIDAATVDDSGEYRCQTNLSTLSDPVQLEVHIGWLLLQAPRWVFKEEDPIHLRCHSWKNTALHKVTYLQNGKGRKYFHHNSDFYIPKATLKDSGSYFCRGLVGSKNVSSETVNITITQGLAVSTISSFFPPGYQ
Sequence of His-FcγRIII (158F) (P08637 17-208 limits assumed): as the sequence (P08637 17-208 F176V limits assumed) above, with V160F counted along it

Molecule: Ref Ab Q variable region on IgG1 reference (antibody)
- Kd [1]: 0.664 nM
- Kd [2]: 640 nM
- Kd [3]: 950 nM
- Kd [4]: 420 nM
- Kd [5]: 330 nM

Molecule: Ref Ab Q variable region on IgG4 (S228P) reference (antibody)
- Kd [1]: 2.71 nM
- Kd [2]: 3520 nM
- Kd [3]: 800 nM
- Kd [4]: 1080 nM

Molecule: Ref Ab Q variable region on IgG2/4 V234A, G236A (antibody)
- Kd [4]: 5340 nM

Molecule: Ref Ab Q variable region on IgG4 (S228P) N297Q (antibody)
- Kd [1]: 130 nM

B1: human C5a (ligand, UniProt P01031 678-751, looked up)
chain: TLQKKIEEIAAKYKHSVVKKCCYDGACVNNDETCEQRAARISLGPRCIKAFTECCVVASQLRANISHKDMQLGR
notes: C5a is only a fragment of it; also called hC5a
- IC50 [7]: 4.1 nM

B3: 32F3A6 (antibody, V domains shown)
VH: EVQLVQSGGGLVHPGGSLRLSCAGSGFTFSSYVMHWVRQAPGKGLEWVSAIDTGGGTYYADSVKGRFTISRDNAKNSLYLQMNSLRAEDMAVYYCARDYYYYASGSYYKAFDIWGQGTMVTVSS
VL: EIVLTQSPGTLSLSPGERATLSCRASQSVSSRYLAWYQQKPGQAPRLLIYGASSRATGIPDRFSGSGSGTDFTLTISRLEPEDFAVYYCQQYGSPLTFGQGTKLEIKR
notes: Human monoclonal antibody from HumAb mice, purified from hybridoma supernatant
- Migration of human neutrophils (in % compared to migration in the absence of antibody) [10]: 2%
- IC50 [11]: 1.9 nM

B4: Ref Ab Q variable region on IgG4 (S228P) E233P, F234V, L235A (antibody, part only; not given: Variable regions of Ref Ab Q, not shown: another chain or arm of the molecule)
constant: ASTKGPSVFPLAPCSRSTSESTAALGCLVKDYFPEPVTVSWNSGALTSGVHTFPAVLQSSGLYSLSSVVTVPSSSLGTKTYTCNVDHKPSNTKVDKRVESKYGPPCPPCPAPPVAGGPSVFLFPPKPKDTLMISRTPEVTCVVVDVSQEDPEVQFNWYVDGVEVHNAKTKPREEQFNSTYRVVSVLTVLHQDWLNGKEYKCKVSNKGLPSSIEKTISKAKGQPREPQVYTLPPSQEEMTKNQVSLTCLVKGFYPSDIAVEWESNGQPENNYKTTPPVLDSDGSFFLYSRLTVDKSRWQEGNVFSCSVMHEALHNHYTQKSLSLSLGK
- Kd [1]: 380 nM

B5: Ref Ab Q variable region on IgG2 reference (antibody, part only; not given: Variable regions of Ref Ab Q, not shown: another chain or arm of the molecule)
constant: ASTKGPSVFPLAPCSRSTSESTAALGCLVKDYFPEPVTVSWNSGALTSGVHTFPAVLQSSGLYSLSSVVTVPSSNFGTQTYTCNVDHKPSNTKVDKTVERKCCVECPPCPAPPVAGPSVFLFPPKPKDTLMISRTPEVTCVVVDVSHEDPEVQFNWYVDGVEVHNAKTKPREEQFNSTFRVVSVLTVVHQDWLNGKEYKCKVSNKGLPAPIEKTISKTKGQPREPQVYTLPPSREEMTKNQVSLTCLVKGFYPSDIAVEWESNGQPENNYKTTPPMLDSDGSFFLYSKLTVDKSRWQQGNVFSCSVMHEALHNHYTQKSLSLSPGK
- Kd [2]: 220 nM
- Kd [3]: 2790 nM
- Kd [4]: 1540 nM
- Kd [6]: 1500 nM

B7: 35F32A3 (antibody, V domains shown)
VH: QVQLVESGGGLVRPGRSLRLSCAASGFTFRDYGMHWVRQAPGKSLEWVAVIWFDGINKYYGDSVKGRFTISRDNSKNTLYLQMNSLRAEDTAMYYCVGTYFGPGTTEFFQHWGQGTLVTVSS
VL: EIVLTQSPATLSLSPGERATLSCRASQSVSSYLAWYQQKPGQAPRLLIYDASNRATGIPARFSGSGSGTDFTLTISSLEPEDFAVYYCQQRSNWPTFGPGTKVDIKR
notes: as for B3
- Migration of human neutrophils (in % compared to migration in the absence of antibody) [10]: 11%
- IC50 [11]: 0.95 nM

B8: 35F12A2 (antibody, V domains shown)
VH: QVQLVESGGGVVQPGRSLRLSCVASGFTFSNYGMHWVRQAPGKGLEWVAVIWYDGINKYYADSVKGRFTISRDNSKSTLYLQMNSLRAEDTAVYYCAGTYYTSGSSKHFQPWGQGTLVTVSS
VL: EIVLTQSPATLSLSPGERATLSCRASQSVSSYLSWYQQKPGQAPRLLIYDASNRATGIPARFSGSGSGTDFTLTISSLEPEDFAVYYCQQRSNWPTFGPGTKVDIKR
notes: as for B3
- Migration of human neutrophils (in % compared to migration in the absence of antibody) [10]: 19%
- IC50 [11]: 2.04 nM

B9: Ref Ab Q variable region on IgG2/IgG4 reference (antibody, part only; not given: Ref Ab Q variable regions, part only)
heavy, part: ASTKGPSVFPLAPCSRSTSESTAALGCLVKDYFPEPVTVSWNSGALTSGVHTFPAVLQSSGLYSLSSVVTVPSSNFGTQTYTCNVDHKPSNTKVDKTVERKCCVECPPCPAPPVAGPSVFLFPPKPKDTLMISRTPEVTCVVVDVSQEDPEVQFNWYVDGVEVHNAKTKPREEQFNSTYRVVSVLTVLHQDWLNGKEYKCKVSNKGLPSSIEKTISKAKGQPREPQVYTLPPSQEEMTKNQVSLTCLVKGFYPSDIAVEWESNGQPENNYKTTPPVLDSDGSFFLYSRLTVDKSRWQEGNVFSCSVMHEALHNHYTQKSLSLSLGK
- Kd [2]: 1030 nM
- Kd [4]: 1830 nM

Other lines, results leading:

- Kd [1]: 360 nM
Molecule: Ref Ab Q variable region on IgG1 N297Q (antibody)

- Kd [4]: 2100 nM
Molecule: Ref Ab Q variable region on IgG1 L234A, L235E, G237A, A330S and P331S (antibody)

- Kd [6]: 960 nM
Molecule: Ref Ab Q variable region on IgG1 L234A, L235E (antibody)

- IC50, Neutrophil migration (Chemotaxis) Assay [8]: 1 µg/mL
- IC50 CD11b up-regulation [9]: 0.7 µg/mL
- IC50 CD62L down-regulation [9]: 0.5 µg/mL
- IC50 Calcium-flux assay [9]: 1.8 µg/mL
B2: 32F3A6 GL (antibody, human IgG1, V domains shown)
VH: EVQLVESGGGLVQPGGSLRLSCAASGFTFSSYVMHWVRQATGKGLEWVSAIDTGGGTYYADSVKGRFTISRENAKNSLYLQMNSLRAGDTAVYYCARDYYYYASGSYYKAFDIWGQGTMVTVSS
VL: EIVLTQSPGTLSLSPGERATLSCRASQSVSSRYLAWYQQKPGQAPRLLIYGASSRATGIPDRFSGSGSGTDFTLTISRLEPEDFAVYYCQQYGSPLTFGQGTKLEIKR

- Migration of human neutrophils (in % compared to migration in the absence of antibody) [10]: 30%
- IC50 [11]: 2.97 nM
B6: 35F24A3 (antibody, V domains shown)
VH: EVKLVESGGGLVKPGGSLKLSCSASGFAFSNYDMSWVRQTPEKRLEWVAAFSSDGYTFYPDSLKGRFTISRDNARNTLYLQMSSLGSEDTALYCCARHADYANYPVMDYWGQGTSVTVSS
VL: DIQMTQSPSSLSASVGDRVTITCRASQGISSWLAWYQQKPEKAPKSLIYAASSLQSGVPSRFSGSGSGTDFTLTISSLQPEDFATYYCQQYNSYPRTFGQGTKVEIKR
notes: as for B3
